Assay results: patent publication US20050037432

T1: Alpha-2-Macroglobulin
T1 chain: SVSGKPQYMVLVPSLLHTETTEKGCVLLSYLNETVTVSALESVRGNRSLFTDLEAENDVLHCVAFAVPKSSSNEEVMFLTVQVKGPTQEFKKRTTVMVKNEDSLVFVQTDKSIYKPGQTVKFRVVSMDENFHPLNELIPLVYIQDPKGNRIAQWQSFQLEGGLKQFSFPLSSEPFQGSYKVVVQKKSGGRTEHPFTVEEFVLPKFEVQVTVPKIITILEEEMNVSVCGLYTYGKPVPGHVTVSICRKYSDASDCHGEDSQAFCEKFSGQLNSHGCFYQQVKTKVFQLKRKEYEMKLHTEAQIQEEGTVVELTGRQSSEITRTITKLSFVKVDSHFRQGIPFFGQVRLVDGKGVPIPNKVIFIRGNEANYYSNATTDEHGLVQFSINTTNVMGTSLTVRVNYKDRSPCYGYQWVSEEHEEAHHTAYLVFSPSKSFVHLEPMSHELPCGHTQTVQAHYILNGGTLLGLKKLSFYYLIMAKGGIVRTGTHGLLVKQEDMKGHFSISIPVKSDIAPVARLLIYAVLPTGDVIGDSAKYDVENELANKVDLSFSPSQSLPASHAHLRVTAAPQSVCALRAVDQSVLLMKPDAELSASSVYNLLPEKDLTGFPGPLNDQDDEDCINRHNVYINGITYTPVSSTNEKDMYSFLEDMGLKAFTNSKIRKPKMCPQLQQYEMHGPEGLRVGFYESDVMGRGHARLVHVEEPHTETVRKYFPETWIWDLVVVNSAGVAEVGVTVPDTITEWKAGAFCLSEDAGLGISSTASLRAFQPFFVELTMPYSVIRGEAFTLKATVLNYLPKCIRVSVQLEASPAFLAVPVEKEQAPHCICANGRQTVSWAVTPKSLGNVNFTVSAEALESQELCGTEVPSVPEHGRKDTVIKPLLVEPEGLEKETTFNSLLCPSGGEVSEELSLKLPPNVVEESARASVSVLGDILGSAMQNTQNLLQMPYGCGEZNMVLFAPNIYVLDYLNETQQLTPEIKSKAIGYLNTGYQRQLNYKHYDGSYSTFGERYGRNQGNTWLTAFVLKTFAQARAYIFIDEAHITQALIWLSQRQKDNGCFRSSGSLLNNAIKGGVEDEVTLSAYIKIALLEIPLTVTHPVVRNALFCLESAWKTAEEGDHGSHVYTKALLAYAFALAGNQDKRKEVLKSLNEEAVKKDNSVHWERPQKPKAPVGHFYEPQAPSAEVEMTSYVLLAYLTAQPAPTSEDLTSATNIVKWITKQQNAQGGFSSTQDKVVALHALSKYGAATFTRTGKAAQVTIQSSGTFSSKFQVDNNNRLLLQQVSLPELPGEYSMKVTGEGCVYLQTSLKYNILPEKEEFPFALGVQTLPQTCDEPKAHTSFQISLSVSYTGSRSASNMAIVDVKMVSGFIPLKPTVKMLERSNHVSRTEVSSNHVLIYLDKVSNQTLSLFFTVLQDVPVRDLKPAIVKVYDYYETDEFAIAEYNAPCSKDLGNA

B1: ADAMTS-5 (protein)
chain: SISRARQVELLLVADASMARLYGRGLQHYLLTLASIANRLYSHASIENHIRLAVVKVVVLGDKDKSLEVSKNAATTLKNFCKWQHQHNQLGDDHEEHYDAAILFTREDLCGHHSCDTLGMADVGTICSPERSCAVIEDDGLHAAFTVAHEIGHLLGLSHDDSKFCEETFGSTEDKRLMSSILTSIDASKPWSKCTSATITEFLDDGHGNCLLDLPRKQILGPEELPGQTYDATQQCNLTFGPEYSVCPGMDVCARLWCAVVRQGQMVCLTKKLPAVEGTPCGKGRICLQGKCVDKTKKKYYSTSSHGNWGSWGSWGQCSRSCGGGVQFAYRHCNNPAPRNNGRYCTGKRAIYRSCSLMPCPPNGKSFRHEQCEAKNGYQSDAKGVKTFVEWVPKYAGVLPADVCKLTCRAKGTGYYVVFSPKVTDGTECRLYSNSVCVRGKCVRTGCDGIIGSKLQYDKCGVCGGDNSSCTKIVGTFNKKSKGYTDVVRIPEGATHIKVRQFKAKDQTRFTAYLALKKKNGEYLINGKYMISTSETIIDINGTVMNYSGWSHRDDFLHGMGYSATKEILIVQILATDPTKPLDVRYSFFVPKKSTPKVNSVTSHGSNKVGSHTSQPQWVTGPWLACSRTCDTGWHTRTVQCQDGNRKLAKGCPLSQRPSAFKQCLLKKC
B2: ADAMTS-4 (protein)
chain: FASLSRFVETLVVADDKMAAFHGAGLKRYLLTVMAAAAKAFKHPSIRNPVSLVVTRLVILGSGEEGPQVGPSAAQTLRSFCAWQRGLNTPEDSDPDHFDTAILFTRQDLCGVSTCDTLGMADVGTVCDPARSCAIVEDDGLQSAFTAAHELGHVFNMLHDNSKPCISLNGPLSTSRHVMAPVMAHVDPEEPWSPCSARFITDFLDNGYGHCLLDKPEAPLHLPVTFPGKDYDADRQCQLTFGPDSRHCPQLPPPCAALWCSGHLNGHAMCQTKHSPWADGTPCGPAQACMGGRCLHMDQLQDFNIPQAGGWGPWGPWGDCSRTCGGGVQFSSRDCTRPVPRNGGKYCEGRRTRFRSCNTEDCPTGSALTFREEQCAAYNHRTDLFKSFPGPMDWVPRYTGVAPQDQCKLTCQAQALGYYYVLEPRVVDGTPCSPDSSSVCVQGRCIHAGCDRIIGSKKKFDKCMVCGGDGSGCSKQSGSFRKFRYGYNNVVTIPAGATHILVRQQGNPGHRSIYLALKLPDGSYALNGEYTLMPSPTDVVLPGAVSLRYSGATAASETLSGHGPLAQPLTLQVLVAGNPQDTRLRYSFFVPRPTPSTPRPTPQDWLHRRAQILEILRRRPWAGRK

Biological target: T1, Alpha-2-Macroglobulin

Row | Protein | generation of α2M neoepitopes on digestion (50 ng α2M, 100 ng enzyme, 37° C., 1-30 min)
1 | B1 | Both neoepitopes were generated as early as after 2 minutes of incubation, and increased over time, up to after 30 minutes of incubation
2 | B2 | Both neoepitopes were generated as early as after 2 minutes of incubation, and increased over time, up to after 30 minutes of incubation
